The values that follow come from PMC10671326, “In Vivo and In Vitro Characterization of the RNA Binding Capacity of SETD1A (KMT2F)”.

Data set [1] concerns the target T1, SETD1A RRM domain (human, UniProt O15047 89-197). The experiment in a line: MST. The following applies: EMSA: 2 nM biotinylated RNA, LightShift RNA EMSA kit protocol, 30 min room temperature, 6% native PAGE in 0.5x TBE; MST: 40% MST power, LED 20-40%, buffer and …. (Mobility shift assays separate free from complexed probe on a gel.)
In data set [2] the target is T1, SETD1A RRM domain. The experiment in a line: MST; T-jump; EMSA: 2 nM biotinylated RNA, LightShift RNA EMSA kit protocol, 30 min room temperature, 6% native PAGE in 0.5x TBE; MST: 40% MST power, LED 20-40%, buffer and temperature not in material. The following applies: protein: recombinant; tags: His (pET28-MHL vector, HisTrap purified); label: uniformly labeled (MST).

Data set [3] addresses T1, SETD1A RRM domain. Put plainly: MST; back diffusion; EMSA: 2 nM biotinylated RNA, LightShift RNA EMSA kit protocol, 30 min room temperature, 6% native PAGE in 0.5x TBE; MST: 40% MST power, LED 20-40%, buffer and temperature not in material. To be noted: protein: recombinant; tags: His (pET28-MHL vector, HisTrap purified); label: uniformly labeled (MST).
Data set [4] has as its target T1, SETD1A RRM domain. Put plainly: MST; thermophoresis; EMSA: 2 nM biotinylated RNA, LightShift RNA EMSA kit protocol, 30 min room temperature, 6% native PAGE in 0.5x TBE; MST: 40% MST power, LED 20-40%, buffer and temperature not in material. To be noted: protein: recombinant; tags: His (pET28-MHL vector, HisTrap purified); label: uniformly labeled (MST).

Where “and” joins values, the source holds several entries; their conditions need not be identical. Identical values can stand only once.

Broadly, the Kd is the free concentration of one partner at which half of the binding sites on the other are occupied at equilibrium, for simple one-to-one binding.

T1 sequence (O15047 89-197): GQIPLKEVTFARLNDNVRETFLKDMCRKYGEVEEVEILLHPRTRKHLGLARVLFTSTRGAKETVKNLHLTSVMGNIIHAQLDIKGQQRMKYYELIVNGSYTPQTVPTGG

As for SETD1B mRNA (RRM coding region), the Kd in data set [1] is 310 nM.

Regarding “SETD1A mRNA (N-terminal half coding region)”, the Kd in data set [1] is 210 nM and 60 nM.

Turning to NEAT1_2 (12_13k segment), the Kd in data set [1] is 1520 nM and 1890 nM and 1110 nM.

SNHG8: the Kd in data set [1] was 870 nM and 2190 nM and 1190 nM.

TP53TG1: the Kd in data set [1] was 670 nM and 690 nM and 1050 nM.

On to SCARNA7, for which, in data set [1], the Kd is 1280 nM and 310 nM and 1170 nM.

On to AAGAAUGGCCUCGCGGAGGCAUGCGUCAUGCUAGCGUGCGGGGUACUCUU (ssRNA) [Random50 (R50)], for which the Kd was 15500 nM in data set [2], 11800 nM in data set [3] and 28100 nM in data set [4].
